# Measurements reported in the Human Domainome abundance scans (Beltran et al. 2025).
# ± gives the uncertainty stated by the source.
# B1: Lysine-specific demethylase 2B, residues 656 to 722; numbered along this chain, Q8NHM5 (parent)
# chain: LPHTAVCLVCGEAGKEDTVEEEEGKFNLMLMECSICNEIIHPGCLKIKESEGVVNDELPNCWECPKC
# Variants of: B1
# Assay: abundance fitness (aPCA) (normalised: wild type 0, dead -1); higher = more abundant; growth selection in yeast, the domain comes from the species named
# Details: Homo sapiens
row,Variant,abundance fitness
1,E38Q,-0.098 ± 0.12
2,E38R,0.104 ± 0.07
3,E38C,-0.291 ± 0.14
4,G11L,0.046 ± 0.074
5,P42Q,-0.189 ± 0.23
6,P42M,-0.52 ± 0.22
7,P42R,-0.134 ± 0.063
8,L1I,0.781 ± 0.11
9,L1G,-0.129 ± 0.13
10,L1R,-0.185 ± 0.14
11,I47A,-0.014 ± 0.11
12,I47K,-0.17 ± 0.13
13,I47S,-0.002 ± 0.076
14,V53Q,0.164 ± 0.094
15,V53A,0.047 ± 0.098
16,E57A,0.053 ± 0.083
17,E57P,-0.296 ± 0.18
18,E57S,0.102 ± 0.087
19,E57C,0.036 ± 0.14
20,E57G,-0.065 ± 0.062
21,S34C,-0.053 ± 0.18
22,S34H,-0.03 ± 0.23
23,S34D,-0.153 ± 0.18
24,G24F,0.006 ± 0.055

row,Variant,abundance fitness
1,G24H,0.346 ± 0.14
2,G24V,-0.021 ± 0.071
3,L45F,-0.286 ± 0.18
4,L45T,-0.085 ± 0.1
5,L45R,-0.002 ± 0.056
6,D56N,-0.017 ± 0.095
7,D56R,0.123 ± 0.057
8,D56P,0.099 ± 0.1
9,E23S,0.185 ± 0.11
10,E23Y,-0.36 ± 0.33
11,I35S,-0.364 ± 0.19
12,I35Q,-0.149 ± 0.091
13,I35L,0.016 ± 0.094
14,I35V,0.037 ± 0.096
15,E12W,-0.224 ± 0.085
16,L8E,-0.584 ± 0.23
17,P59N,0.214 ± 0.14
18,K66T,-0.079 ± 0.11
19,K66E,-0.058 ± 0.21
20,G52T,-0.122 ± 0.1
21,G52C,-0.051 ± 0.2
22,G52S,-0.146 ± 0.12
23,L28H,0.118 ± 0.12
24,L28A,0.124 ± 0.08

row,Variant,abundance fitness
1,L28T,0.241 ± 0.11
2,C10I,-1.04 ± 0.27
3,E16Y,-0.786 ± 0.23
4,E16F,-0.497 ± 0.22
5,L58T,0.206 ± 0.096
6,P65H,-0.289 ± 0.14
7,P65S,-0.177 ± 0.077
8,P65L,-0.606 ± 0.12
9,C44L,-0.956 ± 0.16
10,C44T,-0.982 ± 0.19
11,C44N,-0.815 ± 0.46
12,E51K,-0.027 ± 0.19
13,E51V,-0.124 ± 0.076
14,E51G,-0.197 ± 0.096
15,E63G,-0.252 ± 0.1
16,E63K,0.146 ± 0.071
17,E63L,-0.074 ± 0.078
18,E63F,-0.407 ± 0.14
19,E63R,-0.031 ± 0.066
20,V9C,-0.817 ± 0.26
21,V9M,-0.049 ± 0.12
22,V9N,0.239 ± 0.3
23,V9D,-0.287 ± 0.084
24,P2R,0.664 ± 0.11

row,Variant,abundance fitness
1,P2I,0.783 ± 0.15
2,P2Y,0.713 ± 0.097
3,P2L,0.807 ± 0.12
4,G43S,-0.364 ± 0.18
5,G43P,-0.526 ± 0.15
6,G43N,-0.195 ± 0.22
7,G43R,-0.173 ± 0.065
8,M31A,-0.18 ± 0.093
9,M31V,-0.276 ± 0.12
10,K46V,-0.058 ± 0.07
11,K46P,0.077 ± 0.089
12,K46L,0.007 ± 0.08
13,F26H,-0.343 ± 0.2
14,F26K,-0.257 ± 0.14
15,F26G,-0.278 ± 0.067
16,F26I,0.028 ± 0.13
17,F26E,-0.176 ± 0.1
18,A5W,0.055 ± 0.17
19,A5D,-0.726 ± 0.34
20,A5K,0.038 ± 0.17
21,S50G,0.169 ± 0.073
22,C36V,-0.921 ± 0.13
23,C36I,-0.477 ± 0.25
24,A13S,0.177 ± 0.073

row,Variant,abundance fitness
1,T18A,-0.514 ± 0.13
2,T18E,-0.471 ± 0.17
3,E20F,-0.343 ± 0.12
4,E20P,-0.081 ± 0.16
5,E20S,-0.191 ± 0.093
6,K25M,-0.238 ± 0.087
7,K25P,-0.787 ± 0.2
8,N60Q,-0.155 ± 0.14
9,N60L,-0.3 ± 0.066
10,N60F,0.153 ± 0.19
11,N60C,-0.368 ± 0.18
12,N60H,-0.127 ± 0.22
13,V19M,-0.067 ± 0.22
14,V19T,0.013 ± 0.1
15,H41T,-0.784 ± 0.16
16,H41E,-0.997 ± 0.18
17,I40G,-0.229 ± 0.067
18,I40Y,-0.257 ± 0.25
19,I40H,0.1 ± 0.2
20,I40N,0.171 ± 0.15
21,M29L,-0.274 ± 0.1
22,M29G,-0.247 ± 0.082
23,E32D,-0.324 ± 0.15
24,E32R,0.201 ± 0.06

row,Variant,abundance fitness
1,E32V,-0.287 ± 0.098
2,E32W,-0.247 ± 0.09
3,E32F,-0.205 ± 0.12
4,V54S,-0.284 ± 0.16
5,V54K,-0.125 ± 0.1
6,K15M,0.12 ± 0.092
7,K15A,-0.525 ± 0.11
8,K15R,-0.355 ± 0.11
9,K15P,-0.609 ± 0.11
10,N37K,0.095 ± 0.2
11,N37C,0.34 ± 0.33
12,N37H,0.081 ± 0.12
13,N37T,-0.369 ± 0.24
14,N37D,-0.026 ± 0.16
15,N55P,-0.227 ± 0.17
16,N55V,-0.236 ± 0.1
17,N55Y,-0.386 ± 0.44
18,N55K,-0.591 ± 0.34
19,T4S,-0.345 ± 0.16
20,T4L,-1.21 ± 0.39
21,G14A,-0.428 ± 0.1
22,G14F,0.104 ± 0.18
23,G14L,-0.508 ± 0.094
24,G14R,0.04 ± 0.069

row,Variant,abundance fitness
1,E21Q,-0.324 ± 0.19
2,E21G,0.12 ± 0.1
3,N27S,-0.085 ± 0.076
4,K48Y,0.011 ± 0.25
5,C7T,-0.491 ± 0.41
6,C61P,-0.054 ± 0.11
7,C61H,0.309 ± 0.27
8,C61L,-0.04 ± 0.1
9,C64F,-0.719 ± 0.29
10,C64L,-0.935 ± 0.12
11,C64W,-0.775 ± 0.17
12,C64P,-0.684 ± 0.23
13,C64T,-0.952 ± 0.22
14,D17V,-0.088 ± 0.062
15,D17K,-0.174 ± 0.16
16,C33V,-1.24 ± 0.22
17,C67P,-0.867 ± 0.34
18,C67A,-0.676 ± 0.17
19,E49L,-0.077 ± 0.075
20,V6I,0.145 ± 0.088
21,V6G,-0.64 ± 0.12
22,I39L,-0.125 ± 0.073
23,I39Y,0.076 ± 0.11
